From publication PMC11974885 (bioRxiv, 2025)

Target: T1, DbfS sensory domain, DbfS^SD-6xHis (Vibrio cholerae, UniProt Q9KRK1 43-171)
T1 sequence: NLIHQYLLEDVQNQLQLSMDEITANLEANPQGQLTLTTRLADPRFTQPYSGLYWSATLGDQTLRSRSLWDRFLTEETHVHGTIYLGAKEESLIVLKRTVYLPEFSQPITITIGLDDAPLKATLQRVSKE
Assay: MST

B1: DbfQ (processed, 6xHis tag-cleaved) (natural protein)
chain: DNKVRDWEQGSYREGTQIEIDEDQDDVYRAVQKGLIRPFAELYATVDQQLNGRLIKVELDEDDDEWIYELKLVYDNQVFRVEYNAATLELMSIRGRNVIRAIKK
modifications: Red-NHS dye, amine-reactive, covalent (in the MST experiments only)
Kd: 30 nM
